Source: the nanobody polyreactivity screen of Harvey et al. (2022)

Assay: yeast display, Sf9 membrane polyspecificity reagent, FACS + sequencing; frameworks hold sequencing errors
How it was run: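 Sorting gates, low and high (top ~1%), were placed on anti-HA fluorescence to track expression and on streptavidin fluorescence to track reagent binding. A clone's polyreactivity label is taken from the gate it came out of. The reagent was 10% biotinylated, detergent-solubilized Sf9 membrane, applied for 1 hour at 4 °C to galactose-induced yeast display cells.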

Sequence | polyreactivity (PSR sort gate)
QVQLVESGGGLVQAGGSLRLSCAASGITFISYAMGWYRQAPGKEMELVAAISSSGGRTYYADSVKGRFTISRDNAKNTVYLQMNSLKPEDTAVYYCAADGYPEYPRYGYWGQGTQVTVSS | high polyreactivity
QVQLLESGGGLDQAGGTLRLSCAASGGTINLYAMAWYRPAPGKERELVAAISWSGGTTYYADSVKGRFTLSRDNAKNTVYLQIISLKPVDTAVYYCAAYFRTSLGTYDYWGQGTKVTVSS | high polyreactivity
QVQLVESGGGLVQAGGSLRLSCAASGFIFWWYAMGWYRQAPGKERELVATITASVGSTNYADSVKGRFTISRDNAKNTVYLQMNSLKPEDTAVYYCASDIIGAIRDWDHTRMDYWGQGTQVNVSS | low polyreactivity
QVQLVESGGGLVQAGGSLRLSCAASGSTLWYYAMGWYRQAPGKERELVADITSSGNTNYADSVKGRFTISRDNAKNTVYLQMNSLKPEDTAVYYCAADSANYQWYLSWQKDDYWGQGTQVTVSS | low polyreactivity
QVQLVESGGGLVQAGGSLRLSCAASGGTFVGYAMGWYRQAPGKEREFVAAISGSGGSTYYADSVKGRFTISRDNAKNTVYLQMNSLKPEDTAVYYCAARAVSRRFDYWGQGTQVTVSS | high polyreactivity
QVQLVESGGGLVQAGGSLRLSCAASGSIFYYYPMGWYRQAPGKERELVAAINSVGSTYADSVKGRFTISRDNAKNTVYLQMNSLKPEDSAVYYCENYYWGQGTQVTVSS | low polyreactivity
IIQAGGSLRLCCAASGRTISVYAMGWYTQAAGKERELIADITSGGSTNYADSVKGRFTISRDNAKNTVYLQRNSLKPEDTAVYYCVAERQIRSFWSSRTYVFGYWGQGTQVTVSS | low polyreactivity
QVQLVESGGGLVQAGGSLRLSCAASGRIFLTYAMGWYRQAPGKERELVAAITRRGGRTNYADSVKGRFTISRDNAKNTVYLQMNSLKPEDTAVYYCAKSPWPSHLDYDYWGQGTQVTVSS | low polyreactivity
QFQLVESGGGLVQAGGSLRLSCAASGRIFGRYSRGLYRQAPGKERELVAAITWLGTTYYADSVKGRFTISRDNAKNTVYLQMNSLKPEDTAVYYCATVVLLRIWGGYWGQGTQVTVSS | high polyreactivity
QVQLVETGGGLVQAGGSLRLSCAASGRTFAYYVMGWYRQAPGKERELVAAISSDGSTYYADSVKGRFTISRDNAKNTVNLQMNSLKPEDTAVYYCKVDVLLVHDYVFYSWMDYWGQGTQVTVSS | high polyreactivity
QVQLVESGGCLVQAGGSLRLSCAASGRTLYRNAMGWYRPAPGKERELVARITWSGASTYYADSVKGRFTISRDNAKNTVYLQMNSLKPEDTAVYYCAAQYLSRRYGPYYTYNYWGQGTQVTVSS | high polyreactivity
QVQLEESGGGIVQAGGSLRLSCDASGRIFVQYAIGCYRQEPGKEMELVAAISGSGGRTYYADSVKGSFTISRDTAKNTVYLQMNSLKPEDTAVYYCAARYTTGLSFWKPYYYWGQGTQVTVSS | high polyreactivity
QVQLVESGGGLVQAGGSLRLSCAASGSIFYGNAMGWYRQAPGKERELVARISWSGSNTRYADSVKGRFTISRDNAKNTVYLQMNSLKPEDTAVYYCNVKPSARGSPLYDYWGQGTQVTVSS | high polyreactivity
QVQLVESGGGLVQAGGSLRLSCAASGSTFDTYAMGWYRQAPGKEREFVATITGSGGSTYYADSVKVRFTITRDNAKNTVYLQMNSLKPEDTAVYYCNAETYIDLRGKFPVEYDYWGQGTQVTVSS | low polyreactivity
QVQLVDTGGGLVQAGGSLRLSCAASGSTFYFNAMGWYRLAPGKERELVAAISYSGGSTYYADSVKGRFTISRDNAKNTVYFQMNSLKPEDTAVYYCNARGLKSYYPGYWFRGDDWGQGTQVTVSS | high polyreactivity
QVQLVESGGGLVQAGGSLRLSCAASGITFWTYTMGWYRQAPGTERELVAAISKRGGSTYYADSVKGRFTISRDNAKNSVYLQMNSLKPEDTAVYYCAATYSYRFSSFDYWGQGTQVTVSS | high polyreactivity

Sequence | polyreactivity (PSR sort gate)
QVQLVESGGGLVQAGGSLRLSCAASGRIFTAYYAMGWYRQAPGKERELVASISSSGTSTYADSVKGRFTISRDNAKNTVYLQMNSLKPEDTAVYYCATRKLRTRRYDYGYWGQGTQVNVSS | low polyreactivity
QVQLVESGGGLVQAGGRLLLSCAASGSTFTHYAMGWYRQAPGKERELVPAISWGAGSTYYADSVKGRFTNSRDNAKNTVYLQMNSLKPEDTAVYYCAAYLYRYGHKYYSWGQGTQVTVSS | high polyreactivity
QVQLVESGGGLVQAGGSLRLSCAASGITFARYAMAWYRPAPGKERELVAAISKRGGRTYYADSVKGRFTISRDNAKNTFYLQMNSLKPEDTAVYYCATDYYVSTDYNYWGQGTQVTLSS | high polyreactivity
QVQLVESGGGLVQAGVSLPLSCAASGIIFFSYAMGWYRPAPGKERELVAAITSRGTSTYYADSVKGRFTISRDNAKNTVYLQLISLKPEDTAVYYCAARWLWRASKVDYWGQGTQVTLSS | high polyreactivity
QVQLVESGVGLVQAGGSLRLSCAASGSTFDFNAMGWYRPAPGKERELVAAITGSGGSTDYADSVKGRFTISRDNAKNTVYLQMNSLKPEDTAVYYCNAGKTIDYRDGVGYDHWGQGTQVTVSS | low polyreactivity
QVPLVESGGGLVQAGGSLRLSCAASGRIFGYYARGWYRQAPGKDRELVASIRRGTRTNYADSVKGRFTISRDNAKNTVYLQMNSLKPEDTAVYYGAATRFQFTTTPWYDYWGQGTQVTVSS | high polyreactivity
QVQLVESGGGLVQAGGSLRLSSAASGSIFRNAMGWYRQAPGKERELVAGINGSGGSTYYADSVKGRFTISRDNAKNTVYLQMNSLKPEDTAVYYCAAGTSKPTPIYGYWGQGTQVTVSS | low polyreactivity
QVQLVESGGGLVQAGGSLRLSCAASGYTFGSYAMGWYRQAPGTERELVAAIRGSGGSTYYADSVKGRFTISRDNAKNTVYLQLNSLKPEDTAVYYGATSVRRGGRQLYNYWGQGTQVTVSS | high polyreactivity
QVQLVESGGGLVQAGGSHRLSCAASGRIFVYYPRGWYRQAPGIETELVAAINAGRSTNYADSVKGRFTNSRDNAKNNVYLQMNSLKLQDTAVYFCAAVRRSRYSYRGYYWGQGTQVTVSS | high polyreactivity
QVQLVESGGGLVQAGGSLRLSCAASGYNFIVYTMGWYRQAPGKERELVAAISSGGITDYADSVKGRFTISRDNAKNTVYLQMNSLKPEDTAVYYWGQGTQVTVSS | low polyreactivity
QVQLVESGGGLVQAGGSLRLSCAASGRIFGYNAMGWYRQAPGKERELVAAINSDGSKNYADSVKGRFTISRDNAKNTVYLQMNSLKPEDTAVYYCNKELYPVGDYEYWGQGTQVTVSS | low polyreactivity
QVQLVESGGGLVQAGGSLRLSCAASGIIFYRYTMGWYRQAPGKERELVAAISSRGGSTYYADSVKGRFTISRDNAKNTVYLQMNSLKPEDTAVYYWNARSKRTARYNYWGQGTQVTVSS | high polyreactivity
QVQLVESGGGLVQAGGSLRLSCAASGSIFWGYAMGWYRQAPGKERELVAVITWSVGRTYYADSVKGRFTISRDNAKNTVYLQMNSLKPEDTAVYYCNAKSWYGGSYYRYDYWGQGTQVTVSS | low polyreactivity
QVQLVESGGGLVQAGGSLRLSCAASGRIFGSYAMGWYRQAPGKERELVAAISRSGVSTYYADSVKGRFTISRDNAKNTVYLQMNSLKPEDTAVYYCAAYYRYASDYWGQGTQVTVSS | low polyreactivity
QVQLVESGGGLVQAGGSLRLSCAASGFTFFPNAMGWYRQAPGKERELVADITDGGSTNYADSVKGRFTISRDNAKNTVYLQLNSLKPEDTADYYCNADWYGWFGGYEYWGQGTQVTVSS | high polyreactivity
QVQLVESGGGLVQAGGSLRLSCAASGSTFYSYVMGWYRQAPGKERELVAAITYSGGRTYYADSVKGRFTISRDNAKNTVYLQMNSLKPEDTAVYYCAKRVFNYQRYDYWGQGTQVTVSS | high polyreactivity
